The record followed here is article PMC8020760, “Assembly of a dsRNA synthesizing complex: RNA-DEPENDENT RNA POLYMERASE 2 contacts the largest subunit of NUCLEAR RNA POLYMERASE IV” (Proceedings of the National Academy of Sciences of the …, 2021).

B1: NRPD1 peptide 9 of the NRPD1_(1–300) peptide array (peptide, UniProt Q9LQ02 81-95, looked up)
peptide: INPYFLKEVAALLNK
notes: NRPD1, A. thaliana; 15-mer of the array of 30 peptides over 1-300 that overlap by 5; limits worked out from the design; Peptides were 'typically' 15 amino acids long; source: synthetic peptide (Genscript)
B2: NRPD1 peptide 24 of the NRPD1_(1–300) peptide array (peptide, UniProt Q9LQ02 231-245, looked up)
peptide: RVTEIVHQFNGARLI
notes: NRPD1, A. thaliana; 15-mer of the array; limits worked out from the design; Peptides were 'typically' 15 amino acids long; source: synthetic peptide (Genscript)
B3: RDR2 peptide 12 of the RDR2_(771–970) peptide array (peptide, UniProt O82504 881-895, looked up)
peptide: ISDTLGVISTAHLVH
notes: RDR2, A. thaliana; 15-mer of the array; limits worked out from the design; Peptides were 'typically' 15 amino acids long; source: synthetic peptide (Genscript)
B4: NRPD1 peptide 12 of the NRPD1_(1–300) peptide array (peptide, UniProt Q9LQ02 111-125, looked up)
peptide: TEDQPERCRYCTLNT
notes: NRPD1, A. thaliana; 15-mer of the array; limits worked out from the design; holds a CxxC motif; Peptides were 'typically' 15 amino acids long; source: synthetic peptide (Genscript)
B5: NRPD1 peptide 25 of the NRPD1_(1–300) peptide array (peptide, UniProt Q9LQ02 241-255, looked up)
peptide: GARLIFDERTRIYKK
notes: NRPD1, A. thaliana; 15-mer of the array; limits worked out from the design; holds K254 and K255; Peptides were 'typically' 15 amino acids long; source: synthetic peptide (Genscript)
B6: RDR2 peptide 11 of the RDR2_(771–970) peptide array (peptide, UniProt O82504 871-885, looked up)
peptide: EIHKFFVDYMISDTL
notes: RDR2, A. thaliana; 15-mer of the array; limits worked out from the design; holds K874; Peptides were 'typically' 15 amino acids long; source: synthetic peptide (Genscript)
B7: NRPD1 peptide 10 of the NRPD1_(1–300) peptide array (peptide, UniProt Q9LQ02 91-105, looked up)
peptide: ALLNKICPGCKYIRK
notes: as for B4
B8: NRPD1 peptide 13 of the NRPD1_(1–300) peptide array (peptide, UniProt Q9LQ02 121-135, looked up)
peptide: CTLNTGYPLMKFRVT
notes: NRPD1, A. thaliana; 15-mer of the array; limits worked out from the design; holds K131; Peptides were 'typically' 15 amino acids long; source: synthetic peptide (Genscript)
B9: NRPD1 peptide 26 of the NRPD1_(1–300) peptide array (peptide, UniProt Q9LQ02 251-265, looked up)
peptide: RIYKKLVGFEGNTLE
notes: as for B5
B10: recombinant NRPD1_(1–300) with His and FLAG tags, made in E. coli (domain or fragment, A. thaliana, UniProt Q9LQ02 1-300, looked up)
chain: MEDDCEELQVPVGTLTSIGFSISNNNDRDKMSVLEVEAPNQVTDSRLGLPNPDSVCRTCGSKDRKVCEGHFGVINFAYSIINPYFLKEVAALLNKICPGCKYIRKKQFQITEDQPERCRYCTLNTGYPLMKFRVTTKEVFRRSGIVVEVNEESLMKLKKRGVLTLPPDYWSFLPQDSNIDESCLKPTRRIITHAQVYALLLGIDQRLIKKDIPMFNSLGLTSFPVTPNGYRVTEIVHQFNGARLIFDERTRIYKKLVGFEGNTLELSSRVMECMQYSRLFSETVSSSKDSANPYQKKSDT
notes: NRPD1, A. thaliana, amino acids 1-300 of 1,453; More in SI Appendix, Methods; also called NRPD1_(1–300)-FLAG; FLAG-tagged NRPD1_(1–300); source: E. coli (pET28 vector), purified (nickel-NTA by the methods; by its C-terminal FLAG tag by the results); not shown: FLAG, C-terminal, kept
B11: RDR2 peptide 10 of the RDR2_(771–970) peptide array (peptide, UniProt O82504 861-875, looked up)
peptide: RLMDHDVTLEEIHKF
notes: as for B6
B12: recombinant RDR2_(771–970) with His and HA tags, made in E. coli (domain or fragment, A. thaliana, UniProt O82504 771-970, looked up)
chain: ETSVVIGKVVVTKNPCLHPGDIRVLDAIYEVHFEEKGYLDCIIFPQKGERPHPNECSGGDLDGDQFFVSWDEKIIPSEMDPPMDYAGSRPRLMDHDVTLEEIHKFFVDYMISDTLGVISTAHLVHADRDPEKARSQKCLELANLHSRAVDFAKTGAPAEMPYALKPREFPDFLERFEKPTYISESVFGKLYRAVKSSLAQ
notes: The methods give the C-terminal limit as 971, the results and legends as 970; More in SI Appendix, Methods; source: E. coli (pET28 vector), purified (nickel-NTA by the methods; anti-HA resin by the results)

Holding throughout (details): both partners purified
For test [1], the target named is B12. Nature of the test: peptide or protein array; synthetic peptides (10 ng) dot-blotted onto nitrocellulose, probed with about 200 ng NRPD1_(1–300)-FLAG or RDR2_(771–970)-HA in 8 mL 50 mM Hepes-KOH pH 7.5, 100 mM NaCl, room temperature, 1 h; anti-FLAG-HRP or anti-HA-HRP, chemiluminescence.
For test [2], the target named is B10. The test is described as above.
The target in test [3] is T1, recombinant RNA-DEPENDENT RNA POLYMERASE 2 (RDR2), wild type, with N-terminal V5 epitope and 6xHis tags (A. thaliana, UniProt O82504 1-1133).
T1 sequence (looked up): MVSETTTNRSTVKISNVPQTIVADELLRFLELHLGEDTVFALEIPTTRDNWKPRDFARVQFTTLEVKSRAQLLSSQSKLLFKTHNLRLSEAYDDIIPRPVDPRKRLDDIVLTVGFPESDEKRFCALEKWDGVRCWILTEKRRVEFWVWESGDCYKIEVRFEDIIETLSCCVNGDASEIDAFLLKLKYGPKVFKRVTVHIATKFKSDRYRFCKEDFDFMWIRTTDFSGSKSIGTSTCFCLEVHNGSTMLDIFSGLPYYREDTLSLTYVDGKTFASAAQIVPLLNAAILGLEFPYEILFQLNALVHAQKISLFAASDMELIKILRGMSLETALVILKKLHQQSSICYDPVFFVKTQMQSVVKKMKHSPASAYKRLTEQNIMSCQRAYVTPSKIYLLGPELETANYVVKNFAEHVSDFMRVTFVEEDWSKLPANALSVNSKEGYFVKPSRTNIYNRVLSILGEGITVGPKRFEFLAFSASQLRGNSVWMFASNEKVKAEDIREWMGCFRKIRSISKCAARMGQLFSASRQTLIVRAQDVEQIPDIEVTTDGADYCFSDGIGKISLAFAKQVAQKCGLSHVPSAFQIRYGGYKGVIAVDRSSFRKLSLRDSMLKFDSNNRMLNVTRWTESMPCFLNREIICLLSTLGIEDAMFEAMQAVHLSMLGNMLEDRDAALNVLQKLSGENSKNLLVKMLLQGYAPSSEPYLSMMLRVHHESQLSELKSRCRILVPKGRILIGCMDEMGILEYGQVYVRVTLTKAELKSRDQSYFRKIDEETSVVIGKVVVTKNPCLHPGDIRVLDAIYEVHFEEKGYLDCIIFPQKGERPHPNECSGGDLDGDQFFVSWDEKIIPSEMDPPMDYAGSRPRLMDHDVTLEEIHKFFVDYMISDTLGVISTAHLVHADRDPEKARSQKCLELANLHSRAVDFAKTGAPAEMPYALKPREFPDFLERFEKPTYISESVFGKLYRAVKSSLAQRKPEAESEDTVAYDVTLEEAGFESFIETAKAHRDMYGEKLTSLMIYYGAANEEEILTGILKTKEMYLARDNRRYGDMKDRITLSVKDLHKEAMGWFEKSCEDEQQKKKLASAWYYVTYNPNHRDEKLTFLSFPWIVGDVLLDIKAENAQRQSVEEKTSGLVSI
Briefly: co-IP; purified recombinant proteins, 0.25 µM each, 30 min, room temperature, 50 mM Hepes-KOH pH 7.5, 150 mM NaCl; IP with resin against the tag of one or the other partner (anti-FLAG, anti-V5 or anti-HA); immunoblot. In general terms: A western blot detects proteins with antibodies after separation by electrophoresis.

Test [4] addresses B10. The description is as above.

Regarding B1, in test [1], the binding result is listed as “binds”.
For B2, the binding result in test [1] is recorded as “binds”.
B3: the binding result in test [2] is “binds”.
As for B4, the binding result in test [1] is on record as “binds”.
On to B5, for which the binding result in test [1] was “binds”.
B6: the binding result in test [2] is “binds”.
As to B7, the binding result in test [1] is recorded as “binds”.
For the molecule B8, in test [1], the binding result is “binds”.
Still for that read-out and setting: the same measure for B9: “binds”.
As to B10, the binding result in test [3] is given as “binds”.
Consider B11, for which, in test [2], the binding result is listed as “binds”.
Take B12: in test [4], the binding result was “binds”.
